Measured values from the supplement of paper PMC12042874.
± gives the uncertainty stated by the source.

Experiment: amyloid nucleation score (Sup35N fusion, yeast selection) (log enrichment); library NNK1; higher = more nucleation; inactive = no reads after selection
How it was run: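 Using DiMSum, nucleation scores were taken as the log enrichment of output over input reads, centred on the mode score of non-aggregating sequences. The input and output reads came from Illumina sequencing of plasmid inserts, with sequences under 100 input reads excluded. The yeast were psi-negative, expressed Sup35N fused to peptides of 20 random codons, were induced with 100 μM copper sulfate for 24 hours, and were grown 7 days at 30°C on medium lacking adenine and uracil.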

In order of rising amyloid nucleation score:
1. QAKGLALLCV  -2.17 ± 2.7
2. MGAWINYIAPTRYYLMDFFW  -1.7 ± 2.4
3. MVSHKDQRIGPLLASVAHVR  -1.69 ± 1.3
4. SDYFYSGKGFFLAMGLSMSR  -1.5 ± 1.8
5. YCDSWSVSFLICRSPFQNYM  -1.12 ± 0.56
6. CYGFCNCQYSESSKLLFDAL  -1.11 ± 0.34
7. KMRVHGLAVHRATQ  -0.737 ± 0.71
8. GFLICVFLSLVGYFGTCLRT  -0.554 ± 0.97
9. WKQMVLGVWCESLELL  -0.548 ± 0.56
10. SACFMMGLDDWCDSR  -0.529 ± 0.35
11. RPLFIMSLFRGWRRIKLHGS  -0.527 ± 0.49
12. GIRPEN  -0.521 ± 0.49
13. GYGYFSIVTTRMIVGVHVKC  -0.509 ± 0.57
14. SRWGPRL  -0.494 ± 0.71
15. LVNRVKRCAMNVHLSIGGDR  -0.479 ± 0.44
16. NGKEDKTCLWSVQPYCKSCE  -0.475 ± 1.2
17. ISWFRCLEVWPSYGIPDWKN  -0.467 ± 0.28
18. SYSCSVSRKEFSIGVGEHEG  -0.44 ± 0.5
19. LLLYSGEFNS  -0.433 ± 0.39
20. YLCDSSLGVVYSFLHCRMVD  -0.369 ± 0.67
21. ETYGCFRYWISSLPVVEVSF  -0.368 ± 0.35
22. VLISPGFLSVARCLSLDTLF  -0.343 ± 0.33
23. QGSDASVGTAVGSTWEVCCC  -0.334 ± 0.36
24. MPLKVSSMDLGRIKE  -0.333 ± 0.41
25. AVSLFAGDQFDDTTRSAQGI  -0.306 ± 0.74
26. NRTWGYLSCALRNPSMTT  -0.305 ± 0.47
27. VKYWFVVGVVLSWFTER  -0.304 ± 0.24
28. HSPCMPLTCSQTWHSLDLPF  -0.304 ± 0.55
29. WWALIHRPMVRVLGVQRVD  -0.297 ± 0.88
30. ANSYARCYNLVWKLV  -0.291 ± 0.66
31. KLYWTYLTPGTNSGLQSPDS  -0.288 ± 0.62
32. RSDVVVFHQLS  -0.257 ± 1.7
33. CFYFMECLV  -0.254 ± 0.59
34. VNGTG  -0.252 ± 0.97
35. LLLRSRSTRF  -0.233 ± 0.3
36. FDKYLRWFMKTLCNIDNWRW  -0.233 ± 0.24
37. FENCHHYGTARFKDLPRSIV  -0.208 ± 0.66
38. AFNGVSNLEWL  -0.18 ± 1.7
39. TFWVGEKSRVGSVPFQYLRL  -0.152 ± 0.31
40. LASSIFASFRTFVQPSVSGY  -0.146 ± 0.48
41. NPDDVFMSAVWGYF  -0.127 ± 0.19
42. TKGAFKVEKWSLSE  -0.115 ± 0.23
43. FAPMILRPVLSQMAWWKDIA  -0.108 ± 0.52
44. KRVSRNPNPGVV  -0.076 ± 0.56
45. LMWKNSGNYKLRCYRVV  -0.065 ± 0.21
46. GGLDSNRQLVKFYTSWNYNC  -0.057 ± 0.39
47. YTSDKGKLYCGLMMG  -0.045 ± 0.59
48. LWGIMYTM  -0.026 ± 0.93
49. LNRFLYDSCLFSCYFGYMVA  -0.017 ± 0.25
50. DGRVKAKVMMVRNGSLRNVL  0.002 ± 0.4
51. CYSGCYRLCRVIVASCRCRG  0.015 ± 0.71
52. CRFPCSCHRWSMIRSVVCKR  0.03 ± 0.97
53. TWTCDSVCCVRNKEVCGVYQ  0.033 ± 0.23
54. ISCYVRISIILFLEKMVLRA  0.033 ± 0.24
55. VRECRSMERTTHQVCTWGGA  0.078 ± 1.4
56. EGSPKICPRYST  0.088 ± 0.6
57. MLARKRMLNLLLRGWAYSWT  0.09 ± 0.49
58. FISNVWPYGESRFEESNPCL  0.094 ± 0.52
59. SRFMGTNN  0.102 ± 0.84
60. CLGVSSGRLKCYVNYYCDNW  0.106 ± 0.51
61. VFMSLESFYKYNYTHFFFRK  0.114 ± 0.39
62. VQCFLAQRSVDSGATELIIV  0.114 ± 0.59
63. FGYNFRPHHCGCTRNLNSQM  0.115 ± 0.29
64. GYDRSGT  0.135 ± 1.2
65. FELLMDIDC  0.139 ± 0.83
66. MLPLCMSAIRRVKLRSPSEY  0.151 ± 0.52
67. LSWCLPCLSARSVRSRRMVT  0.161 ± 0.25
68. SKMDGVATRYRYNAMRADVK  0.181 ± 0.2
69. SMSSSWG  0.19 ± 0.56
70. QCANAVNHRTLGLMLFKMVL  0.19 ± 0.5
71. IVDYVGCLRHYECYGWQPWG  0.225 ± 0.51
72. PCKSCGLKFTRW  0.235 ± 0.39
73. VGEQSCLLFYMKQ  0.247 ± 0.29
74. SLVRMLRHLRMDEKFLLIRY  0.268 ± 0.53
75. IRDNDDLLWMEGRSWKWSRR  0.27 ± 0.29
76. QTCAYGLRNTTSTVCLYRWG  0.294 ± 0.53
77. AFFVAVCASWFPGLYRY  0.298 ± 0.23
78. LSVIFTLSFLTAIFAVGIWS  0.301 ± 0.23
79. YGRKISYLKFLKCVDVVLGW  0.303 ± 0.28
80. YSITIRITEYNGVVSTGLHL  0.325 ± 0.6
81. VGFRVDFNIDLQLFLYRNEK  0.334 ± 0.81
82. SEYAVNSGSITFFIHAVWCW  0.349 ± 0.26
83. KRYSGDIDMTSREMGLFK  0.356 ± 0.16
84. RRYHGGDWSLLVNQLN  0.374 ± 0.23
85. RFFYWG  0.375 ± 1.2
86. WSKDNTIVEISYGTSGLVQL  0.39 ± 0.26
87. RSHVVTGYARSGRGLLATDM  0.396 ± 0.45
88. KNVYDYFWLDNCYAIDIASM  0.427 ± 0.41
89. FNTCMSLFSNCFPNCWMHFK  0.428 ± 0.61
90. ILATMQFLCQMGSERNQARA  0.454 ± 0.26
91. KRRWPSSNGDFFAECYQLGT  0.461 ± 0.25
92. KRTAHRMVRSCSLWKVRYRQ  0.462 ± 1.2
93. VDWSVAWHWLLSSD  0.484 ± 0.49
94. VLMMLNGTDVKWMESANELS  0.49 ± 0.41
95. IIRKPGLTRTCHTVLTAASE  0.511 ± 0.91
96. RLIHRPVWV  0.526 ± 0.48
97. NCTARMKVGFAGFSFTLWIA  0.533 ± 0.56
98. NFINVVVWQEGYLRVIHTSV  0.537 ± 1.1
99. RGRDHCYTTDWNGYRVMVPL  0.58 ± 0.51
100. FATRTLVYVYFRWCHDDLSH  0.584 ± 0.56
101. AYAVVGAM  0.604 ± 0.69
102. EAFYFRLRKLFDRNPGGEGT  0.621 ± 0.32
103. SFESVFRHCRVRCCYGKIRQ  0.685 ± 0.31
104. VKVCSSSMRFNVL  0.689 ± 0.58
105. VWLEYECKVLVLHYCFCRVR  0.72 ± 0.61
106. RLASMREHLVWYRRGFRVCC  0.725 ± 0.58
107. SSLGAIYGLINQRPA  0.776 ± 1
108. MFNHV  0.807 ± 1
109. DGLICVPVKLYVNIGKTFTW  0.847 ± 0.41
110. MLTPDLSSDLDILRPTSPLT  0.879 ± 0.51
111. HVKACLVVASYP  0.94 ± 0.5
112. IILCNRPMSYLRYNGARFLA  0.948 ± 0.36
113. RYLVALFSMYKWYGVEKDWK  0.954 ± 0.54
114. RWVTLCRWVNVSSDGELGVR  0.993 ± 0.35
115. YHANICSKFSSLYSNL  1.01 ± 0.93
116. KYLPPQVSSGWI  1.01 ± 0.37
117. SSFARL  1.12 ± 0.55
118. GVLSKSSKLFNCKDYCHSKY  1.13 ± 0.35
119. NRNERVTHSSQFSIGFEERM  1.14 ± 0.57
120. TYTPRETTSTCSAYSFYMLK  1.26 ± 0.15
121. VNASELEYKFTLLVQWMIRR  1.31 ± 0.32
122. GRWWRLLLYCLVAVLAFVGF  1.33 ± 0.6
123. EIWPFMPRDHPMNALIYVSR  1.34 ± 0.39
124. PVARTPHWVLAVRWHALIWG  1.4 ± 0.29
125. FQIRSRISIDCVMVNRDELS  1.41 ± 0.18
126. PGPRVNHTRCVM  1.52 ± 0.85
127. ANLLINGFLSRSRDNYACYR  1.56 ± 0.18
128. LVWRFS  1.56 ± 0.28
129. NSRMRFILGTFY  1.63 ± 0.41
130. FYFTHRFRITVRYSVLVMRT  1.69 ± 0.51
131. ILADIVDATWNFKSSISFLG  1.74 ± 0.16
132. LSYMSLFW  1.94 ± 0.16
133. RCYSVRCTFQVDYARIHANE  1.99 ± 0.17
134. CCSPAPLSLVIIVATVGVAS  2.04 ± 0.19
135. GIVGSG  2.29 ± 0.29
136. GLPVGQGGELDY  2.32 ± 0.14
137. LSHTTVRIDMGAAWRSLYSM  2.36 ± 0.13
138. NLRLAWRGQTVCRETHKRPF  2.37 ± 0.13
139. GLDIFIWYMMVGIVYAFIYV  2.38 ± 0.53
140. VSSTYNSFRFVSLGKFNHHC  2.71 ± 0.17
141. SDVKF  2.95 ± 0.11
142. GSFRMVSMLSGISWARVARF  3.04 ± 0.18
143. YNSVLVTYYCKFSHTDSDSI  3.04 ± 0.18
144. IGAHRNRIWIWYCPVVPNAT  3.1 ± 0.2
145. RCGFSLNFC  3.2 ± 0.097
146. VSYRTSMSVVLRCGFYCSAY  3.22 ± 0.14
147. RPTGLDILS  3.56 ± 0.1
148. NLTGGCLGVRWDMVECAWYY  3.77 ± 0.068
149. GSDMIVYIYRCTVTLMGSST  3.83 ± 0.099
150. RSSLNTCWMGSYNVLGTRTG  4.39 ± 0.11
151. NSYTCNMFDLVFCAYTIASI  4.95 ± 0.057
152. NIYVGSYTLYTTN  5.386 ± 0.047
153. VISVNLGFFPSFVIRASVAS  5.45 ± 0.079
154. KFNIVILLINCAPAFSEMYL  5.475 ± 0.05
155. TNTSWVFVVCIEHKEMDQAV  5.9 ± 0.086
156. YVLYCICV  5.95 ± 0.073
157. LCLSCLWMGETRPRSNPVNL  6.24 ± 0.068
158. CGNLVCCNIMTDKNGY  7.886 ± 0.055
159. CSIVYCMCGLCAS  8.43 ± 0.055

In the case of TTRFRNFKLRSH, the amyloid nucleation score is reported as “inactive”.
With TLDYVSYWGFTIWYAFMMVL the amyloid nucleation score was “inactive”.
In the case of SYNQLDKCR, the amyloid nucleation score is reported as “inactive”.
In the case of MWVCSYA, the amyloid nucleation score is reported as “inactive”.
In the case of YVAFEKTL, the amyloid nucleation score is reported as “inactive”.
For INLCAFGLPLVKVLHWLLYL, the amyloid nucleation score was “inactive”.
For LSQAASNLLSRNLVPLSWLV, the amyloid nucleation score was “inactive”.
With IRCDKLISNSNMLGDKLTL the amyloid nucleation score was “inactive”.
In the case of FSGCQSARGKLWVSDWEL, the amyloid nucleation score is reported as “inactive”.
In the case of CSTRLSSKFSDTIYVEVFSF, the amyloid nucleation score is reported as “inactive”.
With PVDFNQYVVSGLQDLLHYAG the amyloid nucleation score was “inactive”.
